Residue numbers refer to the chain shown, from its start. Names and notes keep the numbering of the source. “Also recorded” adds a separate entry of the source. Read-outs that look alike come from different tables or passages of the source.
Experiments:
[1] = molecular target: wild-type sphingosine kinase (Homo sapiens, UniProt Q9NYA1); settings: chemical inhibitor hitherto used widely; cited from earlier work
[2] = system: sphingosine kinase stimulated by the oncogene Ras; experiment: Activation of SK by the oncogene Ras in 3T3 fibroblasts; type: cell-based; settings: 3T3 fibroblasts (FIG. 6)
Experimental: (§1) A. NIH 3T3 cells were transfected with V12-Ras, v-Src or V12-Ras plus G82D-SK, SphK activity was measured 48 h after transfection. B. Focus formation assays were performed in V12-Ras, v-Src, SphK, or V12-Ras plus G82D-SK transfected NIH 3T3 cells in the absence or presence of DMS (2.5 μM) over two weeks.
(§2) For focus formation assay, low passage NIH 3T3 cells were transfected with the V12 mutant H-ras, v-SRC (gifts from Dr. Julian Downward^2), SphK, G82D mutant SphK expression vectors or empty vector using Lipofectamine Plus as described above. Two days later, the transfected cells were split to 6-well plates. After reaching confluence, they were kept for two weeks in DMEM containing 5% calf serum. The foci were visualized and scored after staining with 0.5% crystal violet. For soft agar assay, suspensions of 1×10^4 cells from the stable transfected pools in a growth medium containing 0.33% agar were overlaid onto 0.6% agar gel in the absence or presence of DMS at various concentrations. After 14-days incubation colonies were stained with 0.1 mg/ml MTT and those greater than 0.1 mm in diameter were scored as positive.

[3] = system: NIH 3T3 cells; experiment: Focus formation (transformation) assay in V12-Ras transfected NIH 3T3 cells; type: cell-based; settings: V12-Ras plus G82D-SK transfected NIH 3T3 cells, two weeks (FIG. 11)
Experimental: as §1, §2

[4] = system: endogenous sphingosine kinase; experiment: Activation of endogenous sphingosine kinase activity by TNFα, IL-1 and PMA in HEK293 cells expressing the variant; type: cell-based, human; settings: for effect on increases in sphingosine kinase activity after activating agents: 100 units/ml IL-1 10 min, 100 ng/ml PMA 30 min (FIGS. 3 & 4)
Experimental: HEK293 cells transfected with either pcDNA3-G82DSK or empty pcDNA3 vector were treated with 1 ng/ml TNFα and 100 units/ml IL-1 for 10 min and 100 ng/ml PMA for 30 min.
FIG. 4 is a graphical representation of time course of sphingosine kinase activation by TNFα in HEK293 cells expressing G82D SK. HEK293 cells transfected with either pcDNA3-G82DSK or empty pcDNA3 vector were treated with 1 ng/ml TNFα. Cells were harvested at various times over 45 min. of TNFα treatment with the cell lysates assayed for sphingosine kinase activity.
(§3) Cell Culture and Transfection—Human embryonic kidney cells (HEK293T, ATCC CRL-1573) cells were cultured on Dulbecco's modified Eagle's medium (DMEM; CSL Biosciences, Parkville, Austrlia) containing 10% fetal calf serum, 2 mM glutamine, 0.2% (w/v) sodium bicarbonate, penicillin (1.2 mg/ml), and gentamycin (1.6 mg/ml). Transfections were performed using the calcium phosphate precipitation method (Graham & van der Eb, 1973). Cells were harvested and lysed by sonication (2 watts for 30 s at 4° C.) in lysis buffer containing 50 mM Tris/HCl (pH 7.4), 10% glycerol, 0.05% Triton X-100, 150 mM NaCl, 1 mM dithiothreitol, 2 mM Na3VO4 10 mM NaF, and 1 mM EDTA. Protein concentrations in cell homogenates were determined with either the Coomassie Brillant Blue (Sigma) or Bichinchoninic acid (Pierce) reagents using BSA as standard.

[5] = system: ERK; experiment: ERK activation by TNFα in HEK293 cells (Western blot); type: cell-based, human; settings: TNFα (FIG. 9)
Experimental: Western Blotting—SDS-PAGE was performed on cell lysates according to the method of Laemmli using 12% acrylamide gels. Proteins were blotted to nitrocellulose and the membranes blocked overnight at 4° C. in PBS containing 5% skim milk and 0.1% Triston X-100. Sphingosine kinase expression levels were analysed with the M2 anti-FLAG antibody (Sigma). ERK activation in response to agonists was followed in cells serum-starved for 4 h using anti-ERK1/2 (Zymed, San Francisco, Calif.) and anti-phospho-ERK1/2 (Promega, Madison, Wis.) antibodies. Immunocomplexes were detected after conjugation to either HRP anti-mouse (Pierce) or anti-rabbit (Selinus/AMRAD, Melbourne, Australia) IgG using an enhanced chemiluminescence kit (Amersham).

[6] = Sphingosine kinase activity of lysates of HEK293/HEK293T cells transfected with hSK or mutant hSK; type: biochemical, human; settings: for sphingosine kinase (catalytic) activity of the variant itself: transfected HEK293 cells (FIG. 2); for Vmax: standardised for the expression levels of the two recombinant proteins
Experimental: as §3
as §3, with “Australia)” for “Austrlia)”, “Na3VO4,” for “Na3VO4”, “with” for “with either”, “Brilliant” for “Brillant”, “reagent” for “or Bichinchoninic acid (Pierce) reagents”
(§4) Kinetic parameters were calculated using a non-linear regression program.

[7] = system: overexpressed wild-type sphingosine kinase; experiment: Activation of overexpressed wild-type sphingosine kinase by TNFα in cotransfected HEK293 cells; type: cell-based, human; settings: for effect on activation of overexpressed wild-type sphingosine kinase: HEK293 cells cotransfected with equal proportions, 1 ng/ml TNFα 10 min (FIG. 5)
Experimental: HEK293 cells, either transfected with pcDNA3-SK, or cotransfected with equval proportions of pcDNA3-SK and pcDNA3-G82DSK were treated with 1 ng/ml TNFα for 10 min. Cells were then harvested and the SK activity in the cell lysates determined.
as §3

[8] = system: protein kinase C; experiment: Protein kinase C activity in situ in HEK293 cells (TNFα or PMA); type: cell-based, human; settings: TNFα or PMA (FIG. 7)
Experimental: (§5) Neutral sphingomyelinase activity was determined using [choline-methyl-^14C]sphingomyelin as substrate, essentially as previously described (Wiegmann et al., 1994). Briefly, whole cell lysates, prepared as described above, were added to an equal volume of 100 mM Tris/HCl buffer (pH 7.4) containing 0.2% Triton X-100, 10 mM MgCl2 and [choline-methyl-^14C]sphingomyelin (50,000 cpm/assay) and incubated at 37° C. for 60 min. Radioactive phosphorylcholine produced was then extracted with chloroform/methanol (2:1, v/v) and quantified in the aqueous phase by scientillation counting. The measurement of PKC activity in situ was performed as described previously (Xia et al., 1996). Briefly, cells were seeded in 24-well plates and maintained in culture medium until 70-80% confluent. After the indicated treatments, the cells were washed with DMEM and placed in 60 μl of buffered salt solution (137 mM NaCl, 5.4 mM KCl, 0.3 mM Na2HPO4, 0.4 mM KH2PO4, 5.5 mM glucose, and 20 mM HEPES) supplemented with 50 μg/ml digitonin, 10 mM MgCl2, 25 mM β-glycerophosphate, and 10 μM [γ^32P]ATP (5000 cpm/pmol). A PKC-specific peptide substrate ([sequence]) was then added (to 2001) in the presence of 5 mM EGTA and 2.5 mM CaCl2. […] The PKC-dependent phosphorylated peptide substrate bound to the filter was quantified by scintillation counting.

[9] = system: sphingomyelinase; settings: HEK293 cells, TNF (FIG. 8)
Experimental: as §5

[10] = Kinetic analysis of hSK with ATP; type: biochemical, human
Experimental: Kinetic analyses were performed with ATP in the concentration range of 0-2 mM and 0-40 mM for hSK^WT and hSK^G82A, respectively. In both cases sphingosine was present at 100 μM.
as §4

[11] = Kinetic analysis of hSK with sphingosine; type: biochemical, human; settings: for Km: sphingosine 0-2 mM, ATP 1 mM (hSK^WT), 40 mM (hSK^G82A), non-linear regression
Experimental: Kinetic analyses were performed with sphingosine in the concentration range of 0-2 mM for both hSK^WT and hSK^G82A. ATP was present at 1 mM and 40 mM for hSK^WT and hSK^G82A, respectively.
as §4

wild-type sphingosine kinase, sequence (Q9NYA1 whole entry): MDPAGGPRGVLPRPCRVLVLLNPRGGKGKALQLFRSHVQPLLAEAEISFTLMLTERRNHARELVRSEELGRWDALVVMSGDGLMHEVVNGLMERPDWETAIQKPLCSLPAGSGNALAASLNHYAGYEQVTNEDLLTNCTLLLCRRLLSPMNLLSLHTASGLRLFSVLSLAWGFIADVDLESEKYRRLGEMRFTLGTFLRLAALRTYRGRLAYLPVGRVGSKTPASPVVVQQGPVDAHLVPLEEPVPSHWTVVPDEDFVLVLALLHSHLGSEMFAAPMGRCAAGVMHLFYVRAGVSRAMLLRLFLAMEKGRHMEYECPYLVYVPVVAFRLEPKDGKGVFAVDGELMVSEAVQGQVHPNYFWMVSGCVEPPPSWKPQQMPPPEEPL

In the case of CCCCCCCCCCCCC/C=C/[C@@H](O)[C@H](CO)N(C)C [DMS, N′N-dimethylsphingosine], the “effect on wild-type sphingosine kinase function” value [1] is listed as “totally eliminates”.

B1: G82DSK: human sphingosine kinase mutant, substitution of the glycine at position 82 to aspartic acid (protein)
chain: MDPAGGPRGVLPRPCRVLVLLNPRGGKGKALQLFRSHVQPLLAEAEISFTLMLTERRNHARELVRSEELGRWDALVVMSGDDLMHEVVNGLMERPDWETAIQKPLCSLPAGSGNALAASLNHYAGYEQVTNEDLLTNCTLLLCRRLLSPMNLLSLHTASGLRLFSVLSLAWGFIADVDLESEKYRRLGEMRFTLGTFLRLAALRTYRGRLAYLPVGRVGSKTPASPVVVQQGPVDAHLVPLEEPVPSHWTVVPDEDFVLVLALLHSHLGSEMFAAPMGRCAAGVMHLFYVRAGVSRAMLLRLFLAMEKGRHMEYECPYLVYVPVVAFRLEPKDGKGVFAVDGELMVSEAVQGQVHPNYFWMVSGCVEPPPSWKPQQMPPPEEPL
For B1, the “effect on sphingosine kinase stimulated by the oncogene Ras” value [2] was “inhibits”, the “effect on sphingosine kinase stimulated by the oncogene Ras” value ([2]; listed as G82D SK) was “inhibiting activation” and the “effect on Ras transformation (focus formation)” value [3] was “inhibits Ras transformation”. For the same molecule, the “effect on increases in sphingosine kinase activity after activating agents” value ([4]; 1 ng/ml TNFα) was “totally suppresses; also recorded: only eliminates activation”, the “effect on increases in sphingosine kinase activity after activating agents” value ([4]; 1 ng/ml TNFα, listed as G82D SK) was “blocks activation” and the “effect on TNF mediated sphingosine kinase activation over time” value ([4]; 1 ng/ml TNFα, time course over 45 min (FIG. 4)) was “inhibits TNF mediated activation at all time point”. The “effect on endogenous baseline sphingosine kinase activity” value ([4]; no stimulus (FIG. 2)) was “does not suppress”, the “effect on activation of erk by TNF” value [5] was “inhibits” and the “effect on activation of erk by TNF” value ([5]; listed as G82D SK) was “prevents ERK activation”. For the same molecule, the “sphingosine kinase (catalytic) activity of the variant itself” value [6] was “no sphingosine kinase activity”, the “sphingosine kinase (catalytic) activity of the variant itself” value ([6]; listed as G82D) was “catalytically inactive” and the “effect on activation of overexpressed wild-type sphingosine kinase” value [7] was “activation is decreased”. The “effect on activation of overexpressed wild-type sphingosine kinase” value ([7]; listed as G82D SK) was “decreases activation”, the “effect on overexpressed baseline sphingosine kinase levels” value ([7]; HEK293 cells overexpressing sphingosine kinase (FIG. 5)) was “not altered” and the “effect on activation of protein kinase C” value [8] was “does not depress”. The “effect on activation of protein kinase C” value ([8]; listed as G82D SK) was “does not effect activation”, the “effect on activation of sphingomyelinase” value [9] was “does not depress” and the “effect on activation of sphingomyelinase” value ([9]; listed as G82D SK) was “does not inhibit activation”.

B2: hSK^G82A: human sphingosine kinase mutant, substitution of the glycine at position 82 to alanine (protein, UniProt Q9NYA1 1-384, looked up, variant G82A)
Sphingosine kinase 1: B1 chain with D82A
For B2, the “affinity for ATP compared with wildtype hSK” value ([10]; FIG. 13) was “considerably lower affinity for ATP”, the Vmax [6] was 32 percentage of the maximum velocity calculated for SK^WT and the “catalytic activity relative to wildtype hSK” value ([6]; transfected HEK293T cell lysates (FIG. 12)) was about 5%. For the same molecule, the “affinity for sphingosine compared with wildtype hSK” value ([11]; FIG. 14) was “remains unaffected” and the Km [11] was 15.5 µM.

B3: hSK^WT: wild-type human sphingosine kinase (SK-1), recombinant, FLAG tagged, expressed in HEK293T cells (protein, UniProt Q9NYA1 1-384, looked up)
Sphingosine kinase 1: B1 chain with D82G
modifications: FLAG tag
notes: wild-type human sphingosine kinase (SK-1), recombinant, FLAG tagged, expressed in HEK293T cells
In the case of B3, the Km ([10]; sphingosine 100 μM, ATP 0-2 mM (hSK^WT), 0-40 mM (hSK^G82A), non-linear regression) is reported as 115 µM, the Vmax [6] is reported as 100 percentage of the maximum velocity calculated for SK^WT and the Km [11] is reported as 12.1 µM.

— patent US20080279841A1, “Novel Therapeutic Molecular Variants And Uses Thereof” (MEDVET SCIENCE PTY LTD., priority 2000, published 2008)
